This passage reports amyloid nucleation score results from the supplement of paper PMC12042874.

± gives the uncertainty stated by the source.

The data set in a line: amyloid nucleation score (Sup35N fusion, yeast selection) (log enrichment); library NNK2; higher = more nucleation; inactive = no reads after selection. In short, it runs like this: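 The nucleation score, computed with DiMSum, is the log enrichment of output over input reads, centred on the mode score of non-aggregating sequences. Sequences with under 100 input reads were dropped. Reads were generated by Illumina sequencing of plasmid inserts from psi-negative yeast with Sup35N fused to peptides of 20 random codons, induced with 100 μM copper sulfate for 24 hours and grown 7 days at 30°C on medium lacking adenine and uracil.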
In the case of RHRSNCMRRSTVSVGNVRES, the amyloid nucleation score is 0.427 ± 0.23.
Take RHSKFRVITENMIDPFQRS: the amyloid nucleation score was determined as 0.249 ± 0.64.
Substance RHVRMISHELNEDTCYTCIL displayed an amyloid nucleation score of -0.536 ± 1.1.
RHYLRRCEEDNCHPKYFVRY showed an amyloid nucleation score of -0.439 ± 0.76.
The substance RIASLTSLGGNMNCAVHSFE displayed an amyloid nucleation score of -0.427 ± 1.1.
RIISHDSCRVIFGKFRVDVW had an amyloid nucleation score of 1.23 ± 0.57.
In turn, RIKRETHAAFNVYSIYAVRY had an amyloid nucleation score of 0.183 ± 0.3.
As for RIMISSIELDNCWYILGLSA, the amyloid nucleation score result is “inactive”.
RIRVIIVPALVLA: the amyloid nucleation score entry is “inactive”.
For the substance RIVQYIELRFTYQRKYNGAG, the amyloid nucleation score was determined as 3.02 ± 0.057.
With RIWMLY, the amyloid nucleation score is 0.42 ± 0.66.
On to RIWSFNGQTFVSNLSVSSVS, for which the amyloid nucleation score was -0.773 ± 0.76.
Under RIYFTPRYLDIDFYWTLNAV stands -0.598 ± 0.64; under RKCQIRVMKNSD, -0.858 ± 1.1; under RKLLYCCEVATWCRGETSER, 4.33 ± 0.089.
Regarding RKTLLLKTRACPSPLFWLDT, the amyloid nucleation score result is “inactive”.
As for RKVRCRYSMT, the amyloid nucleation score was found to be 0.142 ± 0.6.
The result for RKVWLALVIFVCGCFIHYNG reads -0.338 ± 0.64; that for RLALWVKSSYVFIQESEELH, 3.2 ± 0.1; that for RLCLYN, -1.2 ± 0.38.
Take RLECRLNSEPFYKDWTSSDS: the amyloid nucleation score stood at 0.674 ± 0.39.
Consider RLEVGGTN, for which the amyloid nucleation score is 2.86 ± 0.11.
Take RLFRAFNLCYAAIRVGASPQ: the amyloid nucleation score was 0.287 ± 0.26.
With RLGEWECTHQVPFHSRWACG, the amyloid nucleation score is -0.087 ± 0.76.
In the case of RLGSSEACPICLDHFGFIMF, the amyloid nucleation score is -1.26 ± 0.54.
In the case of RLGYILNFELNYLII, the amyloid nucleation score was 0.856 ± 0.17.
On to RLIDCVVVRVFINNVMLPAY, for which the amyloid nucleation score amounted to 5.45 ± 0.056.
Under RLLAIRIVILYSINCVLSLW stands 0.129 ± 0.42; under RLLLRALYNPEYSRTQC, -1.43 ± 0.64.
In the case of RLMSCMFFNADITAPYWSRY, the amyloid nucleation score was found to be 6.235 ± 0.036.
For the substance RLPASWLVAPGCRWPCLPRN, the amyloid nucleation score was 1.78 ± 0.22.
Consider RLPTGSQNY, for which the amyloid nucleation score is -0.281 ± 0.38.
Turning to RLRAQSHCAVAAGRNMEPWA, the amyloid nucleation score turned out to be 5.986 ± 0.043.
RLRQEYGLLLRRGKSVP showed an amyloid nucleation score of 0.252 ± 0.35.
The substance RLSCFMNRGVREDSDSN gave an amyloid nucleation score of -0.766 ± 0.61.
RLSSILYYVNHFS had an amyloid nucleation score of -0.045 ± 0.41.
RLVNASEGGMHWANSSEFYA: the amyloid nucleation score was determined as 0.643 ± 0.24.
Under RLWYHVICVDYDGGEYRSSG stands 0.388 ± 0.36; under RLYTREQLRTLWLSYMFLRK, -0.357 ± 0.29; under RMDKAGRSGV, 0.656 ± 0.26.
For RMFWISNKVSIPGPGLEAGN, the amyloid nucleation score result is “inactive”.
RMGSYDVNRNSFFKCSGRVS registered an amyloid nucleation score of -0.864 ± 0.78.
In the case of RMNEACTWTLIVYFYRSLL, the amyloid nucleation score was 1.5 ± 0.12.
Under RMQHKHASVKGPTCVIQCTD stands 1.62 ± 0.34; under RMSEYFDGLHRWFSGCWCAL, 0.256 ± 0.65; under RMSIFPGH, -1.04 ± 1.1.
With RMSWVGSEHRLGVNSFNVLG, the amyloid nucleation score turned out to be 0.201 ± 0.34.
RNCACCEWL registered an amyloid nucleation score of 4.58 ± 0.052.
With RNCHYYILVTLCNVKNVYL, the amyloid nucleation score worked out at 8.283 ± 0.054.
RNCRDNYYSWRFKHLNRDRD came in with an amyloid nucleation score of -0.076 ± 0.61.
Under RNFCGTRARSISYWAESERW stands -0.089 ± 1.1; under RNFPMVFCAMV, “inactive”; under RNGCLTIEW, 1.78 ± 0.12.
Under RNKCYLLCLR stands -0.384 ± 0.26; under RNKIMCNPYCQGRICRILSG, -0.777 ± 0.53; under RNRSKQDQWRNELSAGLHGV, -0.359 ± 0.45.
The substance RNVCGCPGCYFNVDAILLWY came in with an amyloid nucleation score of -1.2 ± 1.1.
Substance RPCFCFSMFYGRKW registered an amyloid nucleation score of 0.553 ± 0.8.
With RPDQTRF, the amyloid nucleation score was -0.022 ± 0.5.
Regarding RPFKYCVRRLANRA, the amyloid nucleation score is 0.135 ± 0.65.
Under RPKYIWDCWCTCFHFS stands 3.63 ± 0.088; under RPPPHCSCSSYSWDMYCILN, 8.58 ± 0.072; under RQQIFYSRDVQVNVGGN, “inactive”.
In turn, RQQMDS came in with an amyloid nucleation score of 3.62 ± 0.073.
RQSKARLYCR: the amyloid nucleation score is 0.397 ± 0.3.
Under RQVWLR stands 0.854 ± 0.32; under RRFKSDLL, 1.57 ± 0.44.
The substance RRGDKRMVTDFTLLTTGGGR displayed an amyloid nucleation score of 0.543 ± 0.33.
For RRGSSTIGADKESQVSLQN, the amyloid nucleation score is -0.724 ± 1.
On to RRHEPVPSSK, for which the amyloid nucleation score worked out at 0.398 ± 0.66.
For RRKSGLEFLLISNYIILGFR, the amyloid nucleation score entry is “inactive”.
The substance RRVPEKGLLGLYSGGLIAEV came in with an amyloid nucleation score of -0.299 ± 0.74.
As for RRVVVTWMSNIPRLLSRGVN, the amyloid nucleation score was found to be 0.171 ± 0.23.
Regarding RRYDAVR, the amyloid nucleation score turned out to be 1.3 ± 0.22.
The substance RSGVESHRRKVPLVPMGVTV showed an amyloid nucleation score of 1.16 ± 0.36.
With RSKQRCGTTDSPLAMVSKRV, the amyloid nucleation score amounted to 1.05 ± 0.31.
As for RSKVYTWR, the amyloid nucleation score is 3.23 ± 0.071.
Under RSLIKSRVIWGRKCSSRFIR stands -0.64 ± 0.32.
Take RSNRYGRDWNGVGTKWLFHD: the amyloid nucleation score is -0.395 ± 0.45.
Regarding RSQSSYRIVQWIMYTCDNVL, the amyloid nucleation score result is “inactive”.
RSSASRNQFKESCFRAHQFP gave an amyloid nucleation score of -0.339 ± 0.27.
In the case of RSSCRRNSYLRQLVMSLVRY, the amyloid nucleation score was -0.105 ± 1.1.
For the substance RSSRYLLPFNGGTPFYDSR, the amyloid nucleation score was -0.284 ± 1.1.
On to RSSVWGMRELIERKNTSGAW, for which the amyloid nucleation score was 1.49 ± 0.19.
Substance RSTDLVSIFRMDLAIRINVL gave an amyloid nucleation score of 0.815 ± 0.13.
Consider RSVFDLMPRLYDYATNHLSY, for which the amyloid nucleation score is -0.057 ± 0.34.
In the case of RSYDQVRSCHARMREDSNVQ, the amyloid nucleation score came to 4.61 ± 0.066.
The substance RSYSGVFT returned an amyloid nucleation score of -0.926 ± 0.48.
The substance RTHWELRKNLLCPFVDKIY yielded an amyloid nucleation score of -1.2 ± 0.78.
The result for RTIANDWHSCFSGRNLHSSW reads 0.808 ± 0.74; that for RTIVFTLWRDGITKFMVNRD, 0.452 ± 0.43.
Take RTLNGADFS: the amyloid nucleation score is 0.486 ± 0.8.
The result for RTMLSGLLGYRSRSLADSPF reads -0.199 ± 0.76; that for RTPSCSL, -0.916 ± 1.
Substance RTVEWRDNYLLGRILLFNPV registered an amyloid nucleation score of -0.187 ± 0.55.
RVDKGVEFSSTSGSVRNFSL: the amyloid nucleation score is -0.83 ± 1.1.
The result for RVEGFRFYFEVRLGSVSRKL reads -0.42 ± 0.76; that for RVERLWVLHSKATQRRM, 0.063 ± 0.79; that for RVIDLVTCKAHSGWSVLGYM, -0.402 ± 0.37.
Substance RVLFHSSFGRGLVCEISVHV yielded an amyloid nucleation score of -1.01 ± 0.62.
Under RVLSIRSFP stands 1.64 ± 0.13; under RVQAGFIRAGCNIEARKFSG, -0.48 ± 0.28; under RVRGGEYRRSYTKWWEGCGS, 3.19 ± 0.091.
As for RVRIVPDCFNVAACGGWYMD, the amyloid nucleation score is -0.062 ± 0.45.
On to RVRLTRSSSCPNSVSFCGVA, for which the amyloid nucleation score amounted to 1.29 ± 0.24.
The result for RVSGNCIYTKWCVFPVGNLL reads -1.12 ± 0.76; that for RVSQDSVAGRRSLFMKFVGG, 6.022 ± 0.042.
In turn, RVSVDTWQAYMAICWSYVGL came in with an amyloid nucleation score of 0.915 ± 0.23.
Regarding RVTKSVKLGPEFMLNHGRLT, the amyloid nucleation score was 3.33 ± 0.061.
RVVVTEKKLPCLGQGTIVPT gave an amyloid nucleation score of 0.03 ± 0.35.
As to RVYSLNSRWYSLPG, the amyloid nucleation score came out at 0.016 ± 0.76.
Take RWFDRV: the amyloid nucleation score came to 0.664 ± 0.31.
Regarding RWFFEQDIIYLSRVRGDFRV, the amyloid nucleation score result is “inactive”.
Under RWIYLGYSLCLDVLLYCIEL stands 4.07 ± 0.06; under RWMLIAE, 1.03 ± 0.31; under RWNGSKLRY, 0.009 ± 0.76.
The result for RWVWDGPLYMLFSCMCYIKR reads 6.484 ± 0.064; that for RWYILILGFRGKIIYPFRLG, 0.157 ± 1.
Take RWYSPWSWY: the amyloid nucleation score was found to be 0.662 ± 0.36.
The result for RYFDWYNI reads -1.28 ± 0.45.
RYGGRMAMRINYISIMSADY: the amyloid nucleation score was found to be 0.138 ± 0.47.
On to RYGLLYSTSLACWFGS, for which the amyloid nucleation score was determined as 4.36 ± 0.058.
As to RYHVRMKISCRF, the amyloid nucleation score was found to be 2.74 ± 0.11.
The result for RYISYITSVSESRQGNRPYG reads -0.446 ± 0.28; that for RYLCSRVVMSYTCARTPETG, 0.43 ± 0.35; that for RYLVLVLLGHINCARYYTLN, -0.114 ± 1.1.
For RYPVESCVHSFLESRVRDQG, the amyloid nucleation score amounted to 0.881 ± 0.45.
The result for RYRFVIMDDLIIMNAFNSIE reads 4.48 ± 0.12.
RYTYRHNVFTNMSLVYNTMP showed an amyloid nucleation score of 2.88 ± 0.11.
The result for RYYKCVLVWRHQGDSHIRAT reads -0.412 ± 0.63.
SAATPCVY gave an amyloid nucleation score of 0.778 ± 0.25.
Regarding SACWEGGSSFVIKGKTRLFG, the amyloid nucleation score came out at 1.94 ± 0.19.
Take SAFVSVCVSDRDRMGCYYSS: the amyloid nucleation score entry is “inactive”.
As for SAFVVQFVK, the amyloid nucleation score is -0.31 ± 0.42.
For the substance SALHLYGFFLRFFERSSVIL, the amyloid nucleation score was -0.608 ± 0.76.
SALPDSTNRIASVGGISPGS registered an amyloid nucleation score of 0.489 ± 0.46.
In turn, SAQNDEKFLDPVSVIPRCKS returned an amyloid nucleation score of 0.443 ± 0.56.
Take SAYLPSHLYTAFEPHGLVST: the amyloid nucleation score stood at 0.933 ± 0.2.
In the case of SCCISPVSVIMRPSY, the amyloid nucleation score is 3.79 ± 0.1.
